The target of test [1] is gastrin-releasing peptide receptor (human, UniProt P30550 1-384). Briefly: cell-based or functional assay.
In the next test the target is neuromedin B receptor (human, UniProt P28336 1-390). Briefly: cell-based or functional assay.
Test [2] has as its target T1, human bombesin receptor subtype 3 (human, UniProt P32247 1-399).
T1 sequence (looked up): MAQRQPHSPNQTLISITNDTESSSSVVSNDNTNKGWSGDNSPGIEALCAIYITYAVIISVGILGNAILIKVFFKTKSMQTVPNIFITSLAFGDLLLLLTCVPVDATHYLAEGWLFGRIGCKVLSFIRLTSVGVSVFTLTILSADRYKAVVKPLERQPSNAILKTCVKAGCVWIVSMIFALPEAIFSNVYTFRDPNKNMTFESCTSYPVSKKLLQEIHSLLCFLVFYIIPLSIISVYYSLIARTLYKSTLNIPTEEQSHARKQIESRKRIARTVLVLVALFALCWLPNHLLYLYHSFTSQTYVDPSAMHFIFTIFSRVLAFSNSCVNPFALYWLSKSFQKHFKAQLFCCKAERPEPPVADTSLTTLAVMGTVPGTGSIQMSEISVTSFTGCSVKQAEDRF
Briefly: cell-based or functional assay.

In test [3] the target is T1, human bombesin receptor subtype 3. The test can be described thus: radioligand binding; competition; 5 μg membrane fraction of CHO-hBRS3 cells with 0.1 nM radioligand and various concentrations of competitor, 2 h at room temperature, 50mM Tris-HCl (pH7.5), 5mM MgCl2; bound ligand separated on a GF/C filter. The following applies: one partner purified.

Sequence of gastrin-releasing peptide receptor (P30550 whole entry): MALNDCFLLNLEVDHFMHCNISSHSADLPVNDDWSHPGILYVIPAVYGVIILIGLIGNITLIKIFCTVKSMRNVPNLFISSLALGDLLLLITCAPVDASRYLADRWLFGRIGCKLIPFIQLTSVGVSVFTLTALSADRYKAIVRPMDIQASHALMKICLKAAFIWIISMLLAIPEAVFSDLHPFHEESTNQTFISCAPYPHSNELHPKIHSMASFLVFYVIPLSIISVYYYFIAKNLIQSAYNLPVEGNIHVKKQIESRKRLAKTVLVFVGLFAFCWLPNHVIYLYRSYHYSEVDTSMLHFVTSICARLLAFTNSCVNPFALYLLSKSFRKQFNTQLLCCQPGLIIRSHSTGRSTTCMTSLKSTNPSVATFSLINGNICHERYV
Sequence of neuromedin B receptor (P28336 whole entry): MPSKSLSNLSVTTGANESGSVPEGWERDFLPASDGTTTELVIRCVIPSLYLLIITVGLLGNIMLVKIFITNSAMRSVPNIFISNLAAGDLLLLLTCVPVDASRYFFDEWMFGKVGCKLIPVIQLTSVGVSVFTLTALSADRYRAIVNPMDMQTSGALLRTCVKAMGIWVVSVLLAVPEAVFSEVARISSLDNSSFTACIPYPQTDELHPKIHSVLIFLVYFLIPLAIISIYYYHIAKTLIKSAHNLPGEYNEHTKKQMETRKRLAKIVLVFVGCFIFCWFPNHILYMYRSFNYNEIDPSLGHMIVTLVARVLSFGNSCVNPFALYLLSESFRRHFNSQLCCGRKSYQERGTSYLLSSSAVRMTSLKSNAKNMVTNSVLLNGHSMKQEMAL

B1: peptide E (peptide)
chain: YGGFMRRVGRPEWWMDYQKRYGGFL
notes: peptide E, a partially processed product of the opioid peptide precursor proenkephalin A; 25 residues; also called P2; synthetic peptide E; source: synthetic peptide (chemically synthesized)
Take B1: in test [1], the “EC50 of NFAT-luciferase reporter activation in CHO cells expressing hGRPR” value is 3500 nM. Also, the “EC50 of NFAT-luciferase reporter activation in CHO cells expressing hNMBR” value in the test with neuromedin B receptor was found to be 1100 nM. Also, in test [2], the “EC50 of NFAT-luciferase reporter activation in CHO cells expressing hBRS3” value came out at 500 nM. The molecule also returned an IC50 in test [3] of 361 nM.

For the origin of these results see paper PMC4452343, “Monitoring β-arrestin recruitment via β-lactamase enzyme fragment complementation: purification of peptide E as a low-affinity ligand for mammalian bombesin receptors” (PLoS ONE, 2015).
